Assay results published in patent US20110053139A1.
Like-named read-outs stand apart in the source and are kept apart here.

Assays:
[1] = biological target: Coxsackie virus B4 (JVB strain) viral particles (Coxsackie virus B4 (JVB strain)) (UniProt P08292)
[2] = biological target: Herpes Simplex virus type 1 (HSV-1), purified virus; assay: SH-SAW biosensor (325 MHz), 204-4 mAb; HSV-1 alone at 3.6×10^6/µl
[3] = biological target: Coxsackie virus B4 (JVB strain) viral particles (Coxsackie virus B4 (JVB strain)) (UniProt P08292); assay: SH-SAW biosensor (325 MHz), 204-4 mAb; Coxsackie B4 admixed with HSV-1 at equal concentration, high end of range
[4] = biological target: Coxsackie virus B4 (JVB strain) viral particles (Coxsackie virus B4 (JVB strain)) (UniProt P08292); assay: SH-SAW biosensor (325 MHz), 204-4 mAb; Coxsackie B4 admixed with HSV-1 at equal concentration, low end of range

UniProt P08292, sequence (P08292 2-849): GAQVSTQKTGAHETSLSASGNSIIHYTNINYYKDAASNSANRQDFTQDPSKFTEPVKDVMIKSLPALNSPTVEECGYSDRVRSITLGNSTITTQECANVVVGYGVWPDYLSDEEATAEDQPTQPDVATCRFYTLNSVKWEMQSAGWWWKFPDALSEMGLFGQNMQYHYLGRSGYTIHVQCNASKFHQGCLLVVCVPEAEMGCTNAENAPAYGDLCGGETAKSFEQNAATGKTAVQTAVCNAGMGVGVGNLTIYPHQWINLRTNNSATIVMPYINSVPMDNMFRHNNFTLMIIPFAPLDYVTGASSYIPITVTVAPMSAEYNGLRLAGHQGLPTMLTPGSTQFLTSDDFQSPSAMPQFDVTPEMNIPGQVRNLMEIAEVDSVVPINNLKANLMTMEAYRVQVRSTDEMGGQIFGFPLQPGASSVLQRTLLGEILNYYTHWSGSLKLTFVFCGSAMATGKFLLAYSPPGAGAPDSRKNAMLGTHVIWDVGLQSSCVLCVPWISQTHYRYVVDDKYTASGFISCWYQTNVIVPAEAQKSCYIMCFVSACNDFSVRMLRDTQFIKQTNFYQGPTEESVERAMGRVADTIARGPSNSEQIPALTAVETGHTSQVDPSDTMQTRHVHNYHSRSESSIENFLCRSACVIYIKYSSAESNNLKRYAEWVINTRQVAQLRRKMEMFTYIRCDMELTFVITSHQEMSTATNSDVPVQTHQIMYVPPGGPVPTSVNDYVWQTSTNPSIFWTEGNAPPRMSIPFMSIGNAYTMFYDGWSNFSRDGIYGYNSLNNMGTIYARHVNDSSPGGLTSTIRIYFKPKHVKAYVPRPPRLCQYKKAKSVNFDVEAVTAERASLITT

Question: With “IgG2a isotype monoclonal antibody (mAb) directed against the JVB strain of Coxsackie virus B4, produ” as the substance, how does the phase differential mass shift Δφ [1] read?
Answer: 0.95 to 6.99 degrees

Question: And the phase differential mass shift Δφ [2]?
Answer: 0.64 degrees

Question: What about the phase differential mass shift Δφ [3] of the same substance?
Answer: 7.24 degrees

Question: What about the phase differential mass shift Δφ [4] of the same substance?
Answer: 1.09 degrees
